Measured values published in patent US7320785B2, “Compositions and methods for modulation of DARPP-32 phosphorylation” (The Rockefeller University, priority 2001, dated 2008).

How the values were obtained:
Assay type in all cases: biochemical, rat
[1] = pNPP hydrolysis by recombinant PP2C isoforms (phosphatase assay); conditions: for Vmax / kcat / Km: pNPP as substrate; for Km: 37° C.
Procedure: The activity of PP2C isoforms using pNPP as substrate was assayed as previously described (Brumel et al., 1997). […] The reaction was stopped by addition of 1 ml of 0.1 M NaOH, and the initial rate of p-nitrophenol release was determined spectrophotometrically at 405 nm (using a molar extinction coefficient of 18 000 M−1 cm−1).
(§1) Kinetic parameters (Km and Vmax) were determined from Lineweaver-Burk plots.
Legend Table 7. Enzymatic activities of PP2C isoforms assayed using pNPP as substrate. Phosphatase activity was measured using pNPP as substrate by the change in absorbance at 405 nm. Km and Vmax values were calculated from Lineweaver-Burk plots of the data.

phospho-Ser137-DARPP-32 [2] = assay: Dephosphorylation of phospho-Ser137-DARPP-32 by recombinant PP2C isoforms; conditions: phospho-Ser137-DARPP-32 as substrate; Mn^2+ or Mg^2+
phospho-Ser137-DARPP-32 [3] = assay: as above; conditions: [^32P]phospho-Ser137 DARPP-32 as substrate; in the presence of 10 mM Mn^2+
Procedure: The activity of PP2C isoforms using ^32P-DARPP (phosphorylated at Ser137) was assayed at 37° C. in a reaction mixture containing 25 mM Tris-HCl, pH 7.5, 10 mM MnCl2, 1% BSA, and […] substrate, in a total volume of […]. Reactions were stopped by addition of […] of 50% trichloroacetic acid. Samples were then incubated on ice for 30 min and centrifuged at 10,000 g for 10 min at 4° C. Radioactivity recovered in the supernatant was measured by Cerenkov counting in a scintillation counter (Beckman).
as §1
Legend Table 8. Enzymatic activities of PP2C isoforms assayed using [^32P]phospho-Ser137 DARPP-32 as substrate. Phosphatase activity was measured by the release of ^32P, and Km and Vmax values were calculated from Lineweaver-Burk plots of the data.

B1: PP2Ca: recombinant his-tagged alpha isoform of protein phosphatase 2C cloned from rat striatum (protein)
chain: MGAFLDKPKMEKHNAQGQGNGLRYGLSSMQGWRVEMEDAHTAVIGLPSGLETWSFFAVYDGHAGSQVAKYCCEHLLDHITNNQDFKGSAGAPSVENVKNGIRTGFLEIDEHMRVMSEKKHGADRSGSTAVGVLISPQHTYFINCGDSRGLLCRNRKVHFFTQDHKPSNPLEKERIQNAGGSVMIQRVNGSLAVSRALGDFDYKCVHGKGPTEQLVSPEPEVHDIERSEEDDQFIILACDGIWDVMGNEELCDFVRSRLEVTDDLEKVCNEVVDTCLYKGSRDNMSVILICFPNAPKVSAEAVKKEAELDKYLENRVEEIIKKQGEGVPDLVHVMRTLASENIPSLPPGGELASKRNVIEAVYNRLNPYKNDDTDSASTDDMW
modifications: left off: small tags and cut ends
notes: recombinant his-tagged alpha isoform of protein phosphatase 2C cloned from rat striatum
Vmax of pNPP hydrolysis, Mn^2+ compared to Mg^2+ (higher) ([1]; 20 mM Mn^2+ versus 20 mM Mg^2+): approximately 50 fold | Vmax ([1]; in the presence of 20 mM Mg^2+): 0.20 µmol/mg/min | kcat ([1]; in the presence of 20 mM Mg^2+): 0.16 s⁻¹ | Km ([1]; in the presence of 20 mM Mg^2+): 3100 µM | Vmax ([1]; in the presence of 20 mM Mn^2+): 7.49 µmol/mg/min | kcat ([1]; in the presence of 20 mM Mn^2+): 5.83 s⁻¹ | Km ([1]; in the presence of 20 mM Mn^2+): 1530 µM | divalent cation concentration for maximal activity (phospho-Ser137-DARPP-32 [2]): 4 to 5 mM | Km (phospho-Ser137-DARPP-32 [3]): 13.1 µM | Vmax (phospho-Ser137-DARPP-32 [3]): 0.39 µmol/mg/min | kcat (phospho-Ser137-DARPP-32 [3]): 0.31 s⁻¹
